# Publication PMC7729032, “Interaction interface in the C-terminal parts of centriole proteins Sas6 and Ana2” (Open Biology, 2020)
# T1: MBP-Sas6 wild-type (Drosophila, UniProt Q9VAC8 1-472)
# T1 construct: Sas6, Drosophila, wild type; MBP from destination vector pKM596 (Gateway); No cleavage of MBP is described; also called Sas6-wt; source: E. coli Rosetta(DE3); in lysate (pull-down); purified on amylose resin and SEC (SEC, HDX-MS)
# T1 sequence (looked up): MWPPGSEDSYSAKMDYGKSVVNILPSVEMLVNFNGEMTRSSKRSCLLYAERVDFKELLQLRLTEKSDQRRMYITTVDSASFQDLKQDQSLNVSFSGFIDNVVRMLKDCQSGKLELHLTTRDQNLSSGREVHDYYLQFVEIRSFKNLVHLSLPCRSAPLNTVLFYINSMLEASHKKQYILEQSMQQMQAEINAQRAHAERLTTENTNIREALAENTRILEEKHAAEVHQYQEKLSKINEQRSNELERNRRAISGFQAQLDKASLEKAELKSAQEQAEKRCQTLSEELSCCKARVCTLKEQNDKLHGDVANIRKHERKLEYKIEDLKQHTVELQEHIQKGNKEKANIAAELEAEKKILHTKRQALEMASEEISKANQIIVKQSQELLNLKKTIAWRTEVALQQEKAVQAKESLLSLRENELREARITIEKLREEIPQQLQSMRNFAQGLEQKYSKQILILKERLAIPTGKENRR
# B1: MBP-Ana2-4D (natural protein, Drosophila, UniProt Q9XZ31 1-420, looked up)
# chain: MFVPETEDMLPRLAPRPSAAVPMGHTNEIIGPTVPEVSILFGQPPQDPQMQPQQPNHAHQESSPRAAPTFASWKKQMLPRVNFSPILATELGPRTAPSSNSPCSSKEYQVMPRDRNYASDAQQTTNHMNCNAGGYNAEPKQQAYQSRRLSSSSNADVLTICAGTQTDPFNPSPPRKSLPQVVYSDIDVSNLANKSDLAALVSLVESVRHEQQQLRNLCEMILEQQQRAKPEAISKASSTTGTQCDILTTNQAGRRLSPIMQDYIAEEEEPLPPPQARVIPQFPSPRPHPPIAQSTGYRANTPQAKRIPQLAKPNTEKDMVMNELALKYLRQPVDELMKDMRLGASPKSPNPEPLRPIDNIGHAQDPNDIDNADYKYLKKYRLLPEEQLEPVCPQSPMAATAPSPHIQLDLENIRNQPKLL
# notes: Ana2, Drosophila; STAN motif serines 318, 365, 370 and 373 substituted by aspartic acid; MBP from destination vector pKM596; As prey against Gorab bait the MBP tag follows from the general methods of the pull-down; also called Ana2-4D-FL; source: E. coli Rosetta(DE3); purified on amylose resin and SEC (SEC, HDX-MS); in lysate (pull-down prey)
# Target: T1, MBP-Sas6 wild-type
# Test: SEC; MBP-Ana2-4D mixed with MBP-Sas6, at least 1 h on ice, Superdex 200 10/300; 20 mM Tris–HCl pH 7.5, 150 mM NaCl, 1 mM DTT, 4°C
# Conditions: both partners purified
binder,measurement,value
B1,binding result,binds
